From paper PMC8892085, “Molecular insights into the interaction between human nicotinamide phosphoribosyltransferase and Toll-like receptor 4” (The Journal of Biological Chemistry, 2022)

Experiments:
[1] = biological target: the molecule itself; experiment: SEC; Superose 12 10/300 GL, 50 mM Hepes pH 7.5, 0.3 M NaCl; proteins loaded at 0.9 mg/ml; standards BSA, ovalbumin, carbonic anhydrase
[2] = biological target: T1, Toll-like receptor 4 (TLR4) (human, UniProt O00206 24-629); experiment: SPR; evanescent wave/resonant mirror optical biosensor (IAsys plus), called surface plasmon resonance by the paper; TLR4 covalently anchored (EDC/NHS) to carboxylate cuvettes, 1.3 ng/mm^2; NAMPT proteins soluble, 1 to 3 nM; PBS; 37 °C; monoexponential fit; conditions: both partners purified
T1 construct: Toll-like receptor 4 (TLR4) from the plasmid pEFBOS-TLR4 (Dr Kensuke Miyake); the introduction speaks of the extracellular domain of TLR4; human TLR4 (AAY82270.1) is named for the docking model; Cells were lysed with 0.3% Triton X-100, which may mean the whole receptor; Anchored to the sensor 'via the N terminus of the histidine tail'; also called biosensor-tethered TLR4
T1 sequence (O00206 24-629): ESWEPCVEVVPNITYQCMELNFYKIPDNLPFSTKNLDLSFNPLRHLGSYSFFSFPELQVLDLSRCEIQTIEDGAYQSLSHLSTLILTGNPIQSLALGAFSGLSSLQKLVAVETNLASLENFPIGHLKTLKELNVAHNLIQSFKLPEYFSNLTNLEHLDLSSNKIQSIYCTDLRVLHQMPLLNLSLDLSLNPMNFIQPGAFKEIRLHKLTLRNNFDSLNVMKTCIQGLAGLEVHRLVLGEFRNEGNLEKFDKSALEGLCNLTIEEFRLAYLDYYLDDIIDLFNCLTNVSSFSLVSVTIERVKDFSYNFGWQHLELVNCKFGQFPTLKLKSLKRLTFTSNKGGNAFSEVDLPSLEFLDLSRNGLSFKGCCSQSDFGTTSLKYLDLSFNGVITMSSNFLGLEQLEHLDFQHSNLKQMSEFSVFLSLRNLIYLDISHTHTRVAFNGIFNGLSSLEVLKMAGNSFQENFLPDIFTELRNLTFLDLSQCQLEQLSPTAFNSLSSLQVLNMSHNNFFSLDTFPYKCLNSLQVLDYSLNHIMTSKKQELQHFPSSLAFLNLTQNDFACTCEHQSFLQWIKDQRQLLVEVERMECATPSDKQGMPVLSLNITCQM

B1: NAMPT β-loop deletion mutant Δ(42>51) (enzyme, human)
chain: MNPAAEAEFNILLATDSYKVTHYKQYPPNTSKVYSYFECREVKYEETVFYGLQYILNKYLKGKVVTKEKIQEAKDVYKEHFQDDVFNEKGWNYILEKYDGHLPIEIKAVPEGFVIPRGNVLFTVENTDPECYWLTNWIETILVQSWYPITVATNSREQKKILAKYLLETSGNLDGLEYKLHDFGYRGVSSQETAGIGASAHLVNFKGTDTVAGLALIKKYYGTKDPVPGYSVPAAEHSTITAWGKDHEKDAFEHIVTQFSSVPVSVVSDSYDIYNACEKIWGEDLRHLIVSRSTQAPLIIRPDSGNPLDTVLKVLEILGKKFPVTENSKGYKLLPPYLRVIQGDGVDINTLQEIVEGMKQKMWSIENIAFGSGGGLLQKLTRDLLNCSFKCSYVVTNGLGINVFKDPVADPNKRSKKGRLSLHRTPAGNFVTLEEGKGDLEEYGQDLLHTVFKNGKVTKSYSFDEIRKNAQLNIELEAAHH
notes: nicotinamide phosphoribosyltransferase (NAMPT), human, UniProt P43490; pET15b plasmid changed with the In-Fusion kit; the β1-β2 K-rich loop fully deleted; also called ΔK(42>51); β-loop deleted mutant; source: ClearColi BL21 (DE3), purified (Ni-NTA, PD10; ε-poly-L-lysine resin to remove endotoxin)
In the case of B1, the “stoichiometry N” value [1] is reported as 2, the Kd [2] is reported as 218 nM and the koff [2] is reported as 0.07 ± 0.02 s⁻¹. The kon [2] was 320000 M⁻¹ s⁻¹.

B2: human nicotinamide phosphoribosyltransferase (NAMPT), wildtype (enzyme)
chain: MNPAAEAEFNILLATDSYKVTHYKQYPPNTSKVYSYFECREKKTENSKLRKVKYEETVFYGLQYILNKYLKGKVVTKEKIQEAKDVYKEHFQDDVFNEKGWNYILEKYDGHLPIEIKAVPEGFVIPRGNVLFTVENTDPECYWLTNWIETILVQSWYPITVATNSREQKKILAKYLLETSGNLDGLEYKLHDFGYRGVSSQETAGIGASAHLVNFKGTDTVAGLALIKKYYGTKDPVPGYSVPAAEHSTITAWGKDHEKDAFEHIVTQFSSVPVSVVSDSYDIYNACEKIWGEDLRHLIVSRSTQAPLIIRPDSGNPLDTVLKVLEILGKKFPVTENSKGYKLLPPYLRVIQGDGVDINTLQEIVEGMKQKMWSIENIAFGSGGGLLQKLTRDLLNCSFKCSYVVTNGLGINVFKDPVADPNKRSKKGRLSLHRTPAGNFVTLEEGKGDLEEYGQDLLHTVFKNGKVTKSYSFDEIRKNAQLNIELEAAHH
notes: nicotinamide phosphoribosyltransferase (NAMPT), human, UniProt P43490; also called WT; HsNAMPT; source: ClearColi BL21 (DE3), purified (Ni-NTA, PD10; ε-poly-L-lysine resin to remove endotoxin)
B2 was tested, and the “stoichiometry N” value [1] was 2, the Kd [2] was 17.8 nM and the koff [2] was 0.005 ± 0.001 s⁻¹. For the same binder, the kon [2] was 280000 M⁻¹ s⁻¹.

B3: NAMPT α-loop double mutant K(68/71)S (enzyme, human)
chain: MNPAAEAEFNILLATDSYKVTHYKQYPPNTSKVYSYFECREKKTENSKLRKVKYEETVFYGLQYILNSYLSGKVVTKEKIQEAKDVYKEHFQDDVFNEKGWNYILEKYDGHLPIEIKAVPEGFVIPRGNVLFTVENTDPECYWLTNWIETILVQSWYPITVATNSREQKKILAKYLLETSGNLDGLEYKLHDFGYRGVSSQETAGIGASAHLVNFKGTDTVAGLALIKKYYGTKDPVPGYSVPAAEHSTITAWGKDHEKDAFEHIVTQFSSVPVSVVSDSYDIYNACEKIWGEDLRHLIVSRSTQAPLIIRPDSGNPLDTVLKVLEILGKKFPVTENSKGYKLLPPYLRVIQGDGVDINTLQEIVEGMKQKMWSIENIAFGSGGGLLQKLTRDLLNCSFKCSYVVTNGLGINVFKDPVADPNKRSKKGRLSLHRTPAGNFVTLEEGKGDLEEYGQDLLHTVFKNGKVTKSYSFDEIRKNAQLNIELEAAHH
notes: nicotinamide phosphoribosyltransferase (NAMPT), human, UniProt P43490; mutagenised pET15b plasmid; K68 and K71 replaced with serine; source: ClearColi BL21 (DE3), purified (Ni-NTA, PD10; ε-poly-L-lysine resin to remove endotoxin)
In the case of B3, the “stoichiometry N” value [1] is reported as 2, the Kd [2] is reported as 20.8 nM and the koff [2] is reported as 0.01 ± 0.004 s⁻¹. For the same binder, the kon [2] was 480000 M⁻¹ s⁻¹.

B4: NAMPT β-loop double mutant K(42/48)A (enzyme, human)
chain: MNPAAEAEFNILLATDSYKVTHYKQYPPNTSKVYSYFECREAKTENSALRKVKYEETVFYGLQYILNKYLKGKVVTKEKIQEAKDVYKEHFQDDVFNEKGWNYILEKYDGHLPIEIKAVPEGFVIPRGNVLFTVENTDPECYWLTNWIETILVQSWYPITVATNSREQKKILAKYLLETSGNLDGLEYKLHDFGYRGVSSQETAGIGASAHLVNFKGTDTVAGLALIKKYYGTKDPVPGYSVPAAEHSTITAWGKDHEKDAFEHIVTQFSSVPVSVVSDSYDIYNACEKIWGEDLRHLIVSRSTQAPLIIRPDSGNPLDTVLKVLEILGKKFPVTENSKGYKLLPPYLRVIQGDGVDINTLQEIVEGMKQKMWSIENIAFGSGGGLLQKLTRDLLNCSFKCSYVVTNGLGINVFKDPVADPNKRSKKGRLSLHRTPAGNFVTLEEGKGDLEEYGQDLLHTVFKNGKVTKSYSFDEIRKNAQLNIELEAAHH
notes: nicotinamide phosphoribosyltransferase (NAMPT), human, UniProt P43490; mutagenised pET15b plasmid; K42 and K48 replaced with alanine; source: ClearColi BL21 (DE3), purified (Ni-NTA, PD10; ε-poly-L-lysine resin to remove endotoxin)
For B4, the “stoichiometry N” value [1] was 2, the Kd [2] was 37.1 nM and the koff [2] was 0.029 ± 0.003 s⁻¹. It also gave a kon [2] of 780000 M⁻¹ s⁻¹.

B5: NAMPT α-loop triple mutant K(68>73)A (enzyme, human)
chain: MNPAAEAEFNILLATDSYKVTHYKQYPPNTSKVYSYFECREKKTENSKLRKVKYEETVFYGLQYILNAYLAGAVVTKEKIQEAKDVYKEHFQDDVFNEKGWNYILEKYDGHLPIEIKAVPEGFVIPRGNVLFTVENTDPECYWLTNWIETILVQSWYPITVATNSREQKKILAKYLLETSGNLDGLEYKLHDFGYRGVSSQETAGIGASAHLVNFKGTDTVAGLALIKKYYGTKDPVPGYSVPAAEHSTITAWGKDHEKDAFEHIVTQFSSVPVSVVSDSYDIYNACEKIWGEDLRHLIVSRSTQAPLIIRPDSGNPLDTVLKVLEILGKKFPVTENSKGYKLLPPYLRVIQGDGVDINTLQEIVEGMKQKMWSIENIAFGSGGGLLQKLTRDLLNCSFKCSYVVTNGLGINVFKDPVADPNKRSKKGRLSLHRTPAGNFVTLEEGKGDLEEYGQDLLHTVFKNGKVTKSYSFDEIRKNAQLNIELEAAHH
notes: nicotinamide phosphoribosyltransferase (NAMPT), human, UniProt P43490; mutagenised pET15b plasmid; source: ClearColi BL21 (DE3), purified (Ni-NTA, PD10; ε-poly-L-lysine resin to remove endotoxin)
For B5, the “stoichiometry N” value [1] was 2, the Kd [2] was 1280 nM and the koff [2] was 0.004 ± 0.002 s⁻¹. The kon [2] was 3100 M⁻¹ s⁻¹.

B6: NAMPT β-loop full mutant K/R(42>51)A (enzyme, human)
chain: MNPAAEAEFNILLATDSYKVTHYKQYPPNTSKVYSYFECREAATENSALAAVKYEETVFYGLQYILNKYLKGKVVTKEKIQEAKDVYKEHFQDDVFNEKGWNYILEKYDGHLPIEIKAVPEGFVIPRGNVLFTVENTDPECYWLTNWIETILVQSWYPITVATNSREQKKILAKYLLETSGNLDGLEYKLHDFGYRGVSSQETAGIGASAHLVNFKGTDTVAGLALIKKYYGTKDPVPGYSVPAAEHSTITAWGKDHEKDAFEHIVTQFSSVPVSVVSDSYDIYNACEKIWGEDLRHLIVSRSTQAPLIIRPDSGNPLDTVLKVLEILGKKFPVTENSKGYKLLPPYLRVIQGDGVDINTLQEIVEGMKQKMWSIENIAFGSGGGLLQKLTRDLLNCSFKCSYVVTNGLGINVFKDPVADPNKRSKKGRLSLHRTPAGNFVTLEEGKGDLEEYGQDLLHTVFKNGKVTKSYSFDEIRKNAQLNIELEAAHH
notes: nicotinamide phosphoribosyltransferase (NAMPT), human, UniProt P43490; mutagenised pET15b plasmid; the entire set of positive residues of the β1-β2 K-rich loop (residues 42-51) replaced with alanine; source: ClearColi BL21 (DE3), purified (Ni-NTA, PD10; ε-poly-L-lysine resin to remove endotoxin)
With B6 the “stoichiometry N” value [1] was 2, the Kd [2] was 630 nM and the koff [2] was 0.085 ± 0.023 s⁻¹. It also gave a kon [2] of 130000 M⁻¹ s⁻¹.
